{"source": "patent US11965030", "about": "(Sanofi, dated 2024)", "binders": {"B1": {"name": "CD40 (CH1: L143Q, S188V; CK: V133T, S176V) × PD-L1 (CH1: T192E; CK: N137K, S114A) (closed) (bispecific antibody)", "light 1": "DIQMTQSPSSVSASVGDRVTITCRASQGIYSWLAWYQQKPGKAPNLLIYTASTLQSGVPSRFSGSGSGTDFTLTISSLQPEDFATYYCQQANIFPLTFGGGTKVEIKRTVAAPAVFIFPPSDEQLKSGTASVVCLLKNFYPREAKVQWKVDNALQSGNSQESVTEQDSKDSTYSLSSTLTLSKADYEKHKVYACEVTHQGLSSPVTKSFNRGEC", "heavy": "not shown", "light 2": "not shown", "notes": "Tandem Fab; also called T13"}, "B2": {"name": "CD40 (CH1: L143Q, S188V; CK: V133T, S176V) × PD-L1 (CH1: T192E; CK: N137K, S114A) (open) (bispecific antibody)", "light 1": "B1 light 1", "heavy": "not shown", "light 2": "not shown", "notes": "Tandem Fab; also called T17"}, "B3": {"name": "CD40 (Q38E-Q39K)-(CH1: L143Q, S188V; CK: V133T, S176V) × PD-L1 (Q38K-Q39E)-(CH1: T192E; CK: N137K, S114A) (closed) (bispecific antibody)", "light 1": "B1 light 1 with Q38K", "heavy": "not shown", "light 2": "not shown", "notes": "Tandem Fab; Same printed name as T14; also called T22"}, "B4": {"name": "CD40 (Q38E-Q39K)-(CH1: L143Q, S188V; CK: V133T, S176V) × PD-L1 (Q38K-Q39E)-(CH1: T192E; CK: N137K, S114A) (open) (bispecific antibody)", "light 1": "B1 light 1 with Q38K", "heavy": "not shown", "light 2": "not shown", "notes": "Tandem Fab; also called T26"}, "B5": {"name": "PD-L1 (Q38E-Q39K)-(CH1: L143Q, S188V; CK: V133T, S176V) × OX40 (Q38K-Q39E)-(CH1: T192E; CK: N137K, S114A) (open) (bispecific antibody)", "light 1": "not shown", "heavy": "not shown", "light 2": "B1 light 1 with Q38K", "notes": "Tandem Fab; also called T18"}, "B6": {"name": "CD40 (Q38E-Q39K)-(CH1: L143Q, S188V; CK: V133T, S176V) × PD-L1 (Q38K-Q39E)-(CH1: T192E; CK: N137K, S114A) (closed) (bispecific antibody)", "light 1": "not shown", "heavy": "not shown", "light 2": "B1 light 1 with Q38K", "notes": "Tandem Fab; also called T14"}, "B7": {"name": "PD-L1 (Q38K-Q39E)-(CH1: T192E; CK: N137K, S114A) × CD40 (Q38E-Q39K)-(CH1: L143Q, S188V; CK: V133T, S176V) (open) (bispecific antibody)", "light 1": "not shown", "heavy": "not shown", "light 2": "B1 light 1", "notes": "Tandem Fab; also called T16"}, "B8": {"name": "GITR (Q38K-Q39E)-(CH1: T192E; CK: N137K, S114A) × OX40 (Q38E-Q39K)-(CH1: L143Q, S188V; CK: V133T, S176V) (closed) (bispecific antibody)", "light 1": "EIVMTQSPATLSVSPGERATLSCKASQNVGTNVAWYQKKPGQAPRLLIYSASYRYSGIPARFSGSGSGTEFTLTISSLQSEDFAVYYCQQYNTDPLTFGGGTKVEIKRTVAAPAVFIFPPSDEQLKSGTASVVCLLKNFYPREAKVQWKVDNALQSGNSQESVTEQDSKDSTYSLSSTLTLSKADYEKHKVYACEVTHQGLSSPVTKSFNRGEC", "heavy": "not shown", "light 2": "not shown", "notes": "Tandem Fab; also called T3"}, "B9": {"name": "GITR (Q38K-Q39E)-(CH1: T192E; CK: N137K, S114A) × OX40 (Q38E-Q39K)-(CH1: L143Q, S188V; CK: V133T, S176V) (open) (bispecific antibody)", "light 1": "B8 light 1", "heavy": "not shown", "light 2": "not shown", "notes": "Tandem Fab; also called T7"}, "B10": {"name": "OX40 (CH1: L143Q, S188V; CK: V133T, S176V) × GITR (CH1: T192E; CK: N137K, S114A) (closed) (bispecific antibody)", "light 1": "not shown", "heavy": "not shown", "light 2": "B8 light 1 with K38Q", "notes": "Tandem Fab; also called T4"}, "B11": {"name": "OX40 (CH1: L143Q, S188V; CK: V133T, S176V) × GITR (CH1: T192E; CK: N137K, S114A) (open) (bispecific antibody)", "light 1": "not shown", "heavy": "not shown", "light 2": "B8 light 1 with K38Q", "notes": "Tandem Fab; also called T8"}, "B12": {"name": "OX40 (Q38E-Q39K)-(CH1: L143Q, S188V; CK: V133T, S176V) × GITR (Q38K-Q39E)-(CH1: T192E; CK: N137K, S114A) (open) (bispecific antibody)", "light 1": "not shown", "heavy": "not shown", "light 2": "B8 light 1", "notes": "Tandem Fab; also called T9"}, "B13": {"name": "OX40 (Q38E-Q39K)-(CH1: L143Q, S188V; CK: V133T, S176V) × GITR (Q38K-Q39E)-CH1: T192E; CK: N137K, S114A) closed) (bispecific antibody)", "light 1": "not shown", "heavy": "not shown", "light 2": "B8 light 1", "notes": "Tandem Fab; also called T5"}, "B14": {"name": "GITR (CH1: T192E; CK: N137K, S114A) × OX40 (CH1: L143Q, S188V; CK: V133T, S176V) (open) (bispecific antibody)", "light 1": "B8 light 1 with K38Q", "heavy": "not shown", "light 2": "not shown", "notes": "Tandem Fab; LC-2 as printed is the light chain that elsewhere goes with PD1 (EIVLTQ...SSNWPRT), not the OX40 light chain; also called T6"}, "B15": {"name": "anti-CD40 × anti-PD-L1 Y-shaped antibody Y30 (bispecific antibody)", "light 1": "B1 light 1 with A114S, K137N", "heavy 1": "not shown", "heavy 2": "not shown", "light 2": "not shown", "notes": "CD40 arm wild type (knob); PD-L1 arm S114A,E123K,N137K / T192E,K221E (hole)"}}, "note": "Numbering of substitutions follows the chain as printed. In names and notes the source's numbering stands.", "data": [{"biological_target": "T1, CD40 (UniProt P25942 21-193, limits assumed)", "T1 construct": "construct not described", "T1 sequence (P25942 21-193 limits assumed)": "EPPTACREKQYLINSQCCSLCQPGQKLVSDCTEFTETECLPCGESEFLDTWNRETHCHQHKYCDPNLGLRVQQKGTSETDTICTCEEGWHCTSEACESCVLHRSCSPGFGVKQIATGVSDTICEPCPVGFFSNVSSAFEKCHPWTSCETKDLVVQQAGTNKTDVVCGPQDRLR", "assay": "SPR (Biacore 3000), column 'Affinity'", "units": {"Kd": "nM"}, "values": [{"binder": "B1", "Kd": 2.4}, {"binder": "B2", "Kd": 3.1}, {"binder": "B3", "Kd": 1.7}, {"binder": "B4", "Kd": 1.6}, {"binder": "B5", "Kd": 2.1}, {"binder": "B6", "Kd": 2.4}, {"binder": "B7", "Kd": 4}]}, {"biological_target": "T2, OX40 (UniProt P43489 29-216)", "T2 construct": "construct not described", "T2 sequence (looked up)": "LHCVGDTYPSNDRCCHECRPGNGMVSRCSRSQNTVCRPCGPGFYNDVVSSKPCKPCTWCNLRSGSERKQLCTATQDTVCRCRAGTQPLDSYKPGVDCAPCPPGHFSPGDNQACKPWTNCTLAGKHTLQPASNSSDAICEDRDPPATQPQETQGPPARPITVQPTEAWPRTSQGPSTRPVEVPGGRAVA", "assay": "SPR (Biacore 3000), column 'Affinity'", "units": {"Kd": "nM"}, "values": [{"binder": "B8", "Kd": 0.3}, {"binder": "B9", "Kd": 1}, {"binder": "B10", "Kd": 0.2}, {"binder": "B11", "Kd": 0.3}, {"binder": "B12", "Kd": 0.2}, {"binder": "B13", "Kd": 0.2}, {"binder": "B14", "binding result": "no binding"}]}, {"biological_target": "T3, PD-L1 (UniProt Q9NZQ7 19-239, limits assumed)", "T3 construct": "construct not described; also called Programmed Cell Death Ligand 1 (PD-L1)", "T3 sequence (Q9NZQ7 19-239 limits assumed)": "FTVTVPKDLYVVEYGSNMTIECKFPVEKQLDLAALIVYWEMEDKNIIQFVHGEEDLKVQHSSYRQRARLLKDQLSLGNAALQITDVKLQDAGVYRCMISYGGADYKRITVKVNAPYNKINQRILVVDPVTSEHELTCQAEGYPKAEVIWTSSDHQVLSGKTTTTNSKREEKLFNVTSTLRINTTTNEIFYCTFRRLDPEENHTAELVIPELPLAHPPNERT", "assay": "SPR (Biacore 3000), column 'Affinity'", "units": {"Kd": "nM"}, "values": [{"binder": "B3", "Kd": 0.058}, {"binder": "B4", "Kd": 0.051}, {"binder": "B5", "Kd": 0.023}, {"binder": "B6", "Kd": 0.019}]}, {"biological_target": "T4, GITR (UniProt Q9Y5U5 26-161, limits assumed)", "T4 construct": "construct not described; also called Glucocorticoid-Induce TNFR-Related Protein (GITR)", "T4 sequence (looked up)": "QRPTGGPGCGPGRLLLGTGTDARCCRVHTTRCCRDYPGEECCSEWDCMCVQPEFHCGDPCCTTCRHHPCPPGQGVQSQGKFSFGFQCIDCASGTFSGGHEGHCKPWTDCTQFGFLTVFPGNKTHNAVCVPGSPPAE", "assay": "SPR (Biacore 3000), column 'Affinity'", "units": {"Kd": "nM"}, "values": [{"binder": "B8", "Kd": 0.3}, {"binder": "B9", "Kd": 0.7}, {"binder": "B10", "Kd": 0.9}, {"binder": "B11", "Kd": 0.6}, {"binder": "B12", "Kd": 0.6}, {"binder": "B13", "Kd": 0.7}, {"binder": "B14", "Kd": 0.5}]}, {"biological_target": "T1, CD40", "assay": "SPR", "values": [{"binder": "B15", "binding result": "binds"}]}]}
